Test results as given in US20140045754A1, “GLP-1 COMPOSITIONS” (priority 2011, published 2014).

Assays:
[1] = achievable concentration of protamine sulphate stock solution with NaCl; assay type: physicochemical; settings: 21° C.
Method: In one embodiment, the stock solution of the polycationic compound is prepared with NaCl. […] This allows the storage and/or use of higher concentrations and lowers the volumes of polycationic compound stock solution needed. This makes much larger volume available for either the GLP-1 compound stock solution or the solution of metal salt. Thereby, it is easier to control the mixing process, involving the aqueous solution of GLP-1 compound and the stock solution of metal salt. As a result of this, the injectability of the final formulation is improved, especially after storage at elevated temperatures. For example, a 30-60 mg/mL protamine sulphate stock solution is achievable at 21° C. when adding sodium chloride corresponding to a concentration of 0,3M, and a 30-80 mg/mL protamine sulphate stock solution is achievable at 21° C. when adding sodium chloride corresponding to a concentration of 0,5M.

[2] = optimisation of liraglutide:protamine molar ratios: free liraglutide and protamine in supernatant by liquid chromatography; settings: pH 7,8; 0,11 molecule of protamine per molecule of liraglutide
Method: In each of 8 containers, 10% of the resulting suspension was transferred. Under vigorous stirring, a specific portion of a 18 mM Protamine Chloride solution was added.
The initial container received 0,10 mL of the 18 mM Protamine Chloride solution, followed by 0,2 mL to the second container; ending with addition of 0,8 mL to the final container (number 8). Water was added to each of the eight containers to achieve a total of 5,0 grams of suspension. After 1 hour storage, about 1 mL were withdrawn from each container and centrifuged for 10 minutes at high speed.

Compound	achievable stock solution concentration ([1]; sodium chloride 0,3M)	achievable stock solution concentration ([1]; sodium chloride 0,5M)	composition stability and incorporation of protamine [2]
protamine sulphate	30 to 60 mg/mL	30 to 80 mg/mL	–
CCCCCCCCCCCCCCCC(=O)N[C@@H](CCC(=O)NCCCC[C@H](NC(=O)[C@H](C)NC(=O)[C@H](C)NC(=O)[C@H](CCC(N)=O)NC(=O)CNC(=O)[C@H](CCC(=O)O)NC(=O)[C@H](CC(C)C)NC(=O)[C@H](Cc1ccc(O)cc1)NC(=O)[C@H](CO)NC(=O)[C@H](CO)NC(=O)[C@@H](NC(=O)[C@H](CC(=O)O)NC(=O)[C@H](CO)NC(=O)[C@@H](NC(=O)[C@H](Cc1ccccc1)NC(=O)[C@@H](NC(=O)CNC(=O)[C@H](CCC(=O)O)NC(=O)[C@H](C)NC(=O)[C@@H](N)Cc1cnc[nH]1)[C@@H](C)O)[C@@H](C)O)C(C)C)C(=O)N[C@@H](CCC(=O)O)C(=O)N[C@@H](Cc1ccccc1)C(=O)N[C@H](C(=O)N[C@@H](C)C(=O)N[C@@H](Cc1c[nH]c2ccccc12)C(=O)N[C@@H](CC(C)C)C(=O)N[C@H](C(=O)N[C@@H](CCCNC(=N)N)C(=O)NCC(=O)N[C@@H](CCCNC(=N)N)C(=O)NCC(=O)O)C(C)C)[C@@H](C)CC)C(=O)O [liraglutide, N^ε26-[(4S)-4-carboxy-4-(hexadecanoylamino)butanoyl]-[Arg^34]-GLP-1-(7-37)-peptide]	–	–	good composition stability
